Here are results for five substances from PMC10995880.

For experiment [1], the target named is PEX3 cytosolic domain (Homo sapiens) (UniProt P56589). The note with it: cited from earlier work.
For experiment [2] the target is unchanged. The note with it: cited from earlier work. The source holds these as a separate data set.
Experiment [3] deals with 2×Strep-SUMO-PEX26 (237-305aa) (UniProt Q7Z412).
Experiment [4] addresses His6-PEX19-αd4A (F125A, L129A, L133A, L136A), non-farnesylated (human) (UniProt P40855). The experiment can be described thus: cross-linking; UV crosslinking from Bpa at L264 of PEX26; purified PEX19·PEX26^Bpa complex chased with SGTA instead of CaM.
The target in experiment [5] is His6-PEX19-WT (1–299 aa), non-farnesylated (human) (UniProt P40855). Described as above.
The target of a further experiment is PEX19-WT proteins. Nature of the experiment: cross-linking; UV crosslinking from Bpa at L264 of PEX26; purified PEX19·PEX26^Bpa complex (400 nM PEX19) chased with 20 μM CaM at room temperature in 20 mM K-HEPES pH 7.5, 150 mM CH3COOK, 1 mM Ca acetate, 1 mM DTT, 10% glycerol; frozen aliquots irradiated; anti-Strep blot; dissociation (%) = PEX26xCaM/(PEX26xPEX19 + PEX26xCaM).

Experiment [6] addresses His6-PEX19-αd4A (F125A, L129A, L133A, L136A), non-farnesylated (human) (UniProt P40855). The description is as above.
In experiment [7] the target is farnesylated PEX19-WT (PEX19-WT^F) (human) (UniProt P40855). Described as above.
Experiment [8] addresses His6-PEX19-WT (1–299 aa), non-farnesylated (human) (UniProt P40855). Described as above.
Another experiment addresses PEX19-αd4A proteins. The experiment is described as above.

Values joined by “and” are separate entries in the source; they are usually repeats but may differ in a detail not shown here. Equal values may be shown once. Read-outs that look alike come from different tables or passages of the source.

Chain of PEX3 cytosolic domain (Homo sapiens) (P56589 41-373): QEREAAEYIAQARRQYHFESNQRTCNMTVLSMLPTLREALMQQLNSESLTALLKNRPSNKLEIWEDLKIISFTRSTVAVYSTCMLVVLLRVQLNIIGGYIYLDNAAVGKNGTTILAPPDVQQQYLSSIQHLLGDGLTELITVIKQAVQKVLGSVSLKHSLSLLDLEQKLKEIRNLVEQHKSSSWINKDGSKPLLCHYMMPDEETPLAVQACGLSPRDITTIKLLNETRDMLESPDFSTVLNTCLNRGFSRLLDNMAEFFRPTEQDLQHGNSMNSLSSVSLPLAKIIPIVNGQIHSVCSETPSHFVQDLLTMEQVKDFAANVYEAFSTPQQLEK
Chain of 2×Strep-SUMO-PEX26 (237-305aa) (Q7Z412 237-305): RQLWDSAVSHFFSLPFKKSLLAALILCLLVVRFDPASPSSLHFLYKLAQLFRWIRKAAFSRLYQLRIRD
Chain of farnesylated PEX19-WT (PEX19-WT^F) (P40855 whole entry): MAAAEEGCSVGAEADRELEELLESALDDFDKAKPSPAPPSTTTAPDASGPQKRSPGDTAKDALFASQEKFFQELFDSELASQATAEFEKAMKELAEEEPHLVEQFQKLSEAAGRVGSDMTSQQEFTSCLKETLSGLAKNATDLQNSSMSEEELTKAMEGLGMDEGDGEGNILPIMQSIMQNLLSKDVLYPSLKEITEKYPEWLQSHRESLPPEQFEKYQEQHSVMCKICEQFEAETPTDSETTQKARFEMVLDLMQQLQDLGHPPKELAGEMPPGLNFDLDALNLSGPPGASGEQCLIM
Chain of His6-PEX19-WT (1–299 aa), non-farnesylated (P40855 whole entry, the tested form may be a part): as the sequence (P40855 whole entry) above
Chain of PEX19 (P40855 2-296): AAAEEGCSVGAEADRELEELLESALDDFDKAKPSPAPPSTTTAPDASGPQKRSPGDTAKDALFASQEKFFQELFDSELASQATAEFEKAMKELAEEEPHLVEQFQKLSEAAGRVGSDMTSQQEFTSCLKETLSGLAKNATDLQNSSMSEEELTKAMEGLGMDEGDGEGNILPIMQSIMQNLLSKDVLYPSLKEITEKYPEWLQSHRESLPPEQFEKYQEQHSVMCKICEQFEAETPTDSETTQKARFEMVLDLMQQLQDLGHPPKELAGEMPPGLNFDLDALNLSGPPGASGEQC
Chain of PEX19 αa peptide (P40855 14-33): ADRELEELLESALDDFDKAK

The term Kd denotes the equilibrium constant for the complex coming apart. In the case of PEX19 (from UniProt P40855), the Kd in experiment [1] was 3.4 nM.

Consider PEX19 αa peptide (from UniProt P40855), for which the Kd in [2] was 40.8 nM.

In turn, “His6-PEX19-WT (1–299 aa), non-farnesylated (from UniProt P40855 1-299) (natural protein)” came in with a turbidity assay (OD360): concentration of PEX19 for half-maximal solubilization of 1.5 μM PEX26 (K soluble) in [3] of 1.71 µM.

As for “2×Strep-SUMO-PEX26^Bpa (L264^Bpa) (from UniProt Q7Z412 237-305) (domain or fragment)”, in [4], the PEX26 dissociation (%) within 10 min of SGTA chase was over 40% and the PEX26 dissociation (%) within 20 min of SGTA chase worked out at 50%. The substance also came in with a PEX26 dissociation (%) within 80 min of SGTA chase in experiment [5] of under 4%. For the same substance, the PEX26 dissociation (%) within 4 h of CaM chase in the experiment with PEX19-WT proteins is 20% and 30%. Also, the PEX26 dissociation (%) within 10 min of CaM chase in experiment [6] turned out to be 70%. Moreover, in experiment [7], the time to release ∼20% of PEX26 to CaM came out at 240 min. Besides, in [8], the PEX26 dissociation (%) within 10 min of CaM chase turned out to be 16%; the time to release ∼20% of PEX26 to CaM was 30 min and 40 min. Besides, the PEX26 dissociation (%) within 5 min of CaM chase with PEX19-αd4A proteins was 60% and 80%.

In experiment [3], “farnesylated PEX19-WT (PEX19-WT^F) (from UniProt P40855 1-299) (natural protein)” returned a turbidity assay (OD360): concentration of PEX19 for half-maximal solubilization of 1.5 μM PEX26 (K soluble) of 0.72 µM.
